B1: Isoform 2 of Bardet-Biedl syndrome 7 protein (Homo sapiens), Q8IWZ6-2 (parent)
chain: MDLILNRMDYLQVGVTSQKTMKLIPASRHRATQKVVIGDHDGVVMCFGMKKGEAAAVFKTLPGPKIARLELGGVINTPQEKIFIAAASEIRGFTKRGKQFLSFETNLTESIKAMHISGSDLFLSASYIYNHYCDCKDQHYYLSGDKINDVICLPVERLSRITPVLACQDRVLRVLQGSDVMYAVEVPGPPTVLALHNGNGGDSGEDLLFGTSDGKLALIQITTSKPVRKWEIQNEKKRGGILCIDSFDIVGDGVKDLLVGRDDGMVEVYSFDNANEPVLRFDQMLSESVTSIQGGCVGKDSYDEIVVSTYSGWVTGLTTEPIHKESGPGEELKINQEMQNKISSLRNELEHLQYKVLQERENYQQSSQSSKAKSAVPSFGINDKFTLNKDDASYSLILEVQTAIDNVLIQSDVPIDLLDVDKNSAVVSFSSCDSESNDNFLLATYRCQADTTRLELKIRSIEGQYGTLQAYVTPRIQPKTCQVRQYHIKPLSLHQRTHFIDHDRPMNTLTLTGQFSFAEVHSWVVFCLPEVPEKPPAGECVTFYFQNTFLDTQLESTYRKGEGVFKSDNISTISILKDVLSKEATKRKINLNISYEINEVSVKHTLKLIHPKLEYQLLLAKKVQLIDALKELQIHEGNTNFLIPEYHCILEEADHLQEEYKKQPAHLERLYG
partner: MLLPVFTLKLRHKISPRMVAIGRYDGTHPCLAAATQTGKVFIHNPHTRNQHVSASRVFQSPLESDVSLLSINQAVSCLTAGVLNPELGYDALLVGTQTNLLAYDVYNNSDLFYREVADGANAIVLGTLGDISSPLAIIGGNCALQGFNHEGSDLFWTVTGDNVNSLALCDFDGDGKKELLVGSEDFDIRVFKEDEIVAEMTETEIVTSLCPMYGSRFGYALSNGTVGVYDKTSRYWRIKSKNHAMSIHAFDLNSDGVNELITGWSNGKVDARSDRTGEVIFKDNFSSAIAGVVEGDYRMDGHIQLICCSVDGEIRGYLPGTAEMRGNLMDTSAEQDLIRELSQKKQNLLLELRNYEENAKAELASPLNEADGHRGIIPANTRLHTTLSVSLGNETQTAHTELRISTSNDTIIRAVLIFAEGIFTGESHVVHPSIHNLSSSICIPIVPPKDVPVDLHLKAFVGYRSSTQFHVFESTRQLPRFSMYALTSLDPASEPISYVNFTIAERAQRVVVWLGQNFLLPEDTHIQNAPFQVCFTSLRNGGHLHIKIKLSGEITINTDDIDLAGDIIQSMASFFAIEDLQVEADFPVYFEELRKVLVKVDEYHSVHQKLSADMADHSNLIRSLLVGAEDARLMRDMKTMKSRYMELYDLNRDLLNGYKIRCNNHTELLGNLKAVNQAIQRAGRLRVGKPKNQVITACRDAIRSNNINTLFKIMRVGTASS

Variants of: B1
Conditions: with bbs2_human BBS2, Q9BXC9

| Variant | effect of a mutation on the interaction |
| --- | --- |
| V376K | with no effect |
| V376E | with no effect |
| V376A | with no effect |
| V376I | disrupting interaction strength |
| Q401K | with no effect |
| Q401A | with no effect |
| Q401E | with no effect |
| S369E | with no effect |
| S369K | with no effect |
| S369A | with no effect |
| S343E | with no effect |
| S343A | with no effect |
| S343K | with no effect |
| A392E | with no effect |
| A392K | with no effect |
| G380K | with no effect |
| G380E | with no effect |
| G380A | with no effect |
| Q364K | with no effect |
| Q364A | with no effect |
| Q364E | with no effect |
| E399V | disrupting interaction strength |
| E399A | with no effect |
| E399K | with no effect |

| Variant | effect of a mutation on the interaction |
| --- | --- |
| L352K | with no effect |
| L352E | with no effect |
| L352A | with no effect |
| V400K | with no effect |
| V400A | with no effect |
| V400E | with no effect |
| K371E | with no effect |
| K371A | with no effect |
| S370E | with no effect |
| S370K | with no effect |
| S370A | with no effect |
| Y394K | with no effect |
| Y394A | with no effect |
| Y394E | with no effect |
| Q353E | with no effect |
| Q353A | with no effect |
| Q353K | with no effect |
| F379A | with no effect |
| F379K | with no effect |
| F379E | with no effect |
| L398E | with no effect |
| L398K | with no effect |
| L398A | with no effect |
| L349E | with no effect |

| Variant | effect of a mutation on the interaction |
| --- | --- |
| L349A | with no effect |
| L349K | with no effect |
| R346A | with no effect |
| R346E | with no effect |
| R346K | with no effect |
| R360K | with no effect |
| R360E | with no effect |
| R360A | with no effect |
| D390A | with no effect |
| D390K | with no effect |
| D390E | with no effect |
| Y354A | with no effect |
| Y354K | with no effect |
| Y354E | with no effect |
| Q368E | with no effect |
| Q368A | with no effect |
| Q368K | with no effect |
| K384E | with no effect |
| K384A | with no effect |
| S395A | with no effect |
| S395K | with no effect |
| S395E | with no effect |
| A372E | with no effect |
| A372K | with no effect |

| Variant | effect of a mutation on the interaction |
| --- | --- |
| N347A | with no effect |
| N347K | with no effect |
| N347E | with no effect |
| E359A | with no effect |
| E359K | with no effect |
| E348K | with no effect |
| E348A | with no effect |
| S374K | with no effect |
| S374E | with no effect |
| S374A | with no effect |
| S367E | with no effect |
| S367A | with no effect |
| S367K | with no effect |
| S366K | with no effect |
| S366E | with no effect |
| S366A | with no effect |
| S378K | with no effect |
| S378A | with no effect |
| S378E | with no effect |
| F385A | with no effect |
| F385E | with no effect |

Reference: IntAct's records for PubMed 29039417
